Data reported in US20180142284, “MULTIPLEX ANALYSIS OF GENE EXPRESSION IN INDIVIDUAL LIVING CELLS” (THE GENERAL HOSPITAL CORPORATION, published 2018).

What was measured:
[1] = target: PKR dsRBD (MAGIC factor), Alexa Fluor 488-labeled, not affinity purified (Homo sapiens) (UniProt P19525); test: pulldown; conditions: only 4% of labeled protein able to bind dsRNA
[2] = target: T1, PKR dsRBD (MAGIC factor), Alexa Fluor 488-labeled, affinity purified on dsRNA-agarose (Homo sapiens, UniProt P19525 SEQ:22-205); test: EMSA; Kd value only in figure; about 30-fold higher affinity than unpurified labeled protein; conditions: tags: N-terminal His6; Alexa Fluor 488 on primary amines; label: Alexa Fluor 647
T1 chain: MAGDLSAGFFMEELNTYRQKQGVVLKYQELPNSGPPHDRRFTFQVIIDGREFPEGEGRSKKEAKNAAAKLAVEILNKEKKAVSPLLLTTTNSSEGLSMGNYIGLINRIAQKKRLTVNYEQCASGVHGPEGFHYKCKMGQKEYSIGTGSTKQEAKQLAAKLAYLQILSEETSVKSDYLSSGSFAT
Description: (§1) MAGIC factor was fluorescently-labeled with Alexa Fluor 488 and then reacted with dsRNA-coupled agarose beads to separate binding, functional protein (eluate) from non-binding, non-functional protein (flow and wash fractions). […] Unlabeled and unpurified fluorescent MAGIC factor and affinity purified fluorescent MAGIC factor were reacted with Alexa Fluor 647-labeled dsRNA and ssRNA and run on a native gel. The gel was visualized in the RNA channel (Ex. 633 nm/Em. 670/30 nm BP), protein channel (Ex. 488 nm/Em. 526 nm SP) and FRET channel (Ex. 488 nm/Em. 670/30nm). […] The dashed lines represent the cutoff after which increasing concentrations of only unpurified MAGIC factor were reacted with dsRNA.

[3] = target: T1, PKR dsRBD (MAGIC factor), Alexa Fluor …; test: EMSA; stated to bind specifically to dsRNA; gel result only in figure; conditions: tags: N-terminal His6; Alexa Fluor 488 on primary amines; label: Alexa Fluor 647
Description: as §1

dsRNA coupled to agarose beads
binding signal [1]: 4%

B1: EMSA dsRNA (dsRNA)
RNA 1: GAGUCCUUCCACGAUACC
RNA 2: GGUAUCGUGGAAGGACUC
modifications: aminoallyl-uridine in labeled strand; sequence printed with T, transcribed as RNA
binding result [2]: binds

B2: EMSA ssRNA (ssRNA)
RNA: GAGUCCUUCCACGAUACC
modifications: aminoallyl-uridine; sequence printed with T, transcribed as RNA
binding result [3]: no binding
